Data from CN108285485A (WULUMUQI HENGKANG ZHIYUAN BIOTECHNOLOGY CO LTD, dated 2018).

B1: His-VHH-B7-c-Myc (VHH)
VHH: QVQLQESGGGSVQAGGSLRLSCVASQYTYNTVGWFRQAPGKEREGVAGIYNGGDQTYYSESAKGRFTISQDNAKRTVYLQMNSLKPEDTAMYYCAAGRLIVSGRWSMTKEEYQYWGQGTQVTVSS
notes: Bactrian camel VHH expressed from pET22b in BL21(DE3); not shown: His tag, named only in the construct name; c-Myc tag, named only in the construct name
B2: His-VHH-H12-c-Myc (VHH)
VHH: QVQLQESGGGSVQAGGSLRLSCAVSGGTTRRRCMGWFRQAPGKEREEVASYDNQGIIKYADFVKGRFTISRDNAKNTLYLQMNTLKPEDTAMYYCAMAPGYDNRGCLVYNTWGQGTQVTVSS
notes: as for B1
B3: His-VHH-H5-c-Myc (VHH)
VHH: QVQLQESGGGSVQAGGSLRLSCAASGSTVRRRCMGWFRQAPGKEREEVAIVDNEGIEQYADFVKGRFTISRDNAKNTLYLQMNSLKPEDTAMYYCAMAPGYTPTGCLVYNTWGQGTQVTVSS
notes: as for B1

target: PD-1蛋白 (程序性死亡受体-1); assay: non-competitive ELISA, PD-1 coated at 2, 1, 0.5 and 0.25 μg/ml, KA=(n-1)/(nAb'-Ab)
Sequence (chain, as listed by the source): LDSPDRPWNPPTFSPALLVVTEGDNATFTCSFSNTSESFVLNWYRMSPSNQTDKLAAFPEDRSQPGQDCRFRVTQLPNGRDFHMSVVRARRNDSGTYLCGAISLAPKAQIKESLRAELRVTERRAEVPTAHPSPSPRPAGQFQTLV

Compared with B1, B2 is 2.1-fold higher in Ka: 2.31e+11 M⁻¹ for the first, 4.79e+11 M⁻¹ for the second.

Work on B3 yielded a Ka of 2.62e+11 M⁻¹.
